Measurements reported in publication PMC11302929.
Values joined by “and” are separate entries in the source; they are usually repeats but may differ in a detail not shown here. Equal values may be shown once.

Biological target: recombinant soluble NDV HN ectodomain with GCN4IL dimerization domain (HN-GCN4IL) (not stated | Newcastle disease virus)
Assay: SEC; Superdex 200 Increase 10/300 GL column, freshly purified NDV HN proteins

recombinant soluble NDV HN ectodomain with GCN4IL dimerization domain (HN-GCN4IL)
stoichiometry N: 2 and 4
